Data: publication PMC6754406, “Ran pathway-independent regulation of mitotic Golgi disassembly by Importin-α” (Nature Communications, 2019)

Legend:
[1] = system: Importin-β (HEK293T cell lysate); test: GST pulldown of Importin-β from HEK293T cell lysates; assay type: binding
Protocol: HEK293T cells were lysed in RIPA buffer containing 50 mM Tris, 150 mM NaCl, 1% NP-40, 1% sodium deoxycholate, 0.1% SDS, 1 mM phenylmethyl sulphonyl fluoride, 1 μg/ml aprotinin, and 1 μg/ml leupeptin. Supernatants were collected after centrifugation at 21,000×g for 10 min at 4 °C. Cell lysates were incubated with 5 µM of GST-GM130-WT, GST-GM130-S25D, or GST-GM130-S25D/K34A, and glutathione-coupled sepharose beads (GE Healthcare). After three pre-washes with buffer containing 150 mM NaCl, proteins were eluted using a buffer containing 50 mM of reduced glutathione. Eluted proteins were analyzed by SDS–PAGE, followed by Western blotting using antibodies against GM130 (Abcam ab52649), Importin-α (R&D Systems MAB6207), and Importin-β (Abcam ab2811). Uncropped scans of Western blots are provided in Supplementary Fig. 7.
Sup ple me ntary Figure 3. GM 130 is resistant to IBB displacement upon in teracting with […]
a-d, a, SE C (Superdex 200) elution profile for full-length Importin-α•GST-GM130-S25D (re d line ), full-length Importin-α (blue line), an d G ST-GM130-WT (green line). […] Th e v o i d volum e (Vo) is indicated. e, Western blotting analysis of Importin-α pull-down by GST-GM130-WT and GST-GM130-S25D from HEK293T ce l l l ys at es. […] Data repres ent mean ± standard deviation from three independent experiments. […]

p115-CTD (a.a. 780–930) = test: Isothermal titration calorimetry (ITC), p115-CTD; conditions: ITC (MicroCal iTC200), 25 °C, 20 mM HEPES pH 7.4, 1 mM DTT, 50 mM NaCl; one-sites binding model
Description: Phosphorylation of GM130 on Ser-25 is correlated with p115 dissociation, with this process appearing to be specific to mitosis and being responsible for reduction of p115-mediated vesicle fusion to Golgi membranes[5]–[7],[9],[10]. The N-terminal region of GM130 and the p115 C-terminus interact[11],[12], so we purified recombinant proteins containing these two regions and then assessed their binding affinity by isothermal titration calorimetry (ITC). The wild type GM130 N-terminal region (a.a. 1-85; hereafter GM130-WT) directly bound p115 (a.a. 780–930; hereafter p115-CTD) (Fig. 1a). Furthermore, we examined if GM130 phosphorylation reduces the binding affinity for p115. […] We found in competition-binding assays that p115-CTD pulldown by GST-GM130-S25D was reduced when we added increasing amounts of Importin-α lacking the IBB domain (a.a. 70–524; hereafter Importin-α(ΔIBB)) (Fig. 1c). […]
To purify p115 (a.a. 780–930), cells containing p115 (a.a. […]) were resuspended in a buffer containing 50 mM K-phosphate (pH 7.4), 150 mM NaCl, and 2 mM β-mercaptoethanol. […] Fractions containing p115 protein were pooled and loaded into SEC (Superdex 75 16/600) and analyzed by SDS–PAGE. […]
Binding affinities of different GM130 proteins to Importin-α and Importin-β were measured by ITC (MicroCal iTC200). […] Protein concentrations were determined spectrophotometrically with respective extinction coefficients. […]

B1: GM130: GM130 (recombinant N-terminal region), variant not specified at the place (protein)
chain: MWPQPRLPPRPAMSEETRQSKLAAAKKKLREYQQRNSPGVPTGAKKKKKIKNGSNPETTTSGGCHSPEDTPKDNAATLQPSDDTVLPGGVPSPGASLTSMAASQNHDADNVPNLMDETKTFSSTESLRQLSQQLNGLVCESATCVNGEGPASSANLKDLESRYQQLAVALDSSYVTNKQLNITIEKLKQQNQEITDQLEEEKKECHQKQGALREQLQVHIQTIGILVSEKAELQTALAHTQHAARQKEGESEDLASRLQYSRRRVGELERALSAVSTQQKKADRYNKELTKERDALRLELYKNTQSNEDLKQEKSELEEKLRVLVTEKAGMQLNLEELQKKLEMTELLLQQFSSRCEAPDANQQLQQAMEERAQLEAHLGQVMESVRQLQMERDKYAENLKGESAMWRQRMQQMSEQVHTLREEKECSMSRVQELETSLAELRNQMAEPPPPEPPAGPSEVEQQLQAEAEHLRKELEGLAGQLQAQVQDNEGLSRLNREQEERLLELERAAELWGEQAEARRQILETMQNDRTTISRALSQNRELKEQLAELQSGFVKLTNENMEITSALQSEQHVKRELGKKLGELQEKLSELKETVELKSQEAQSLQQQRDQYLGHLQQYVAAYQQLTSEKEVLHNQLLLQTQLVDQLQQQEAQGKAVAEMARQELQETQERLEAATQQNQQLRAQLSLMAHPGEGDGLDREEEEDEEEEEEEAVAVPQPMPSIPEDLESREAMVAFFNSAVASAEEEQARLRGQLKEQRVRCRRLAHLLASAQKEPEAAAPAPGTGGDSVCGETHRALQGAMEKLQSRFMELMQEKADLKERVEELEHRCIQLSGETDTIGEYIALYQSQRAVLKERHREKEEYISRLAQDKEEMKVKLLELQELVLRLVGDRNEWHGRFLAAAQNPADEPTSGAPAPQELGAANQQGDLCEVSLAGSVEPAQGEAREGSPRDNPTAQQIMQLLREMQNPRERPGLGSNPCIPFFYRADENDEVKITVI
- Importin-α pulled down more than Importin-β [1]: ~ 10 -fold
- Western blot signal of Importin-β reduced compared to Importin-α FL ([1]; same acquisition conditions): more than 10 -fold
- Kd (p115-CTD (a.a. 780–930)): ~980 nM
